According to patent US20020165135A1 (HESKA, published 2002):

Biological target: T1, recombinant canine IL-13 (canine, UniProt Q9N0W9 21-131, limits assumed)
T1 sequence (looked up): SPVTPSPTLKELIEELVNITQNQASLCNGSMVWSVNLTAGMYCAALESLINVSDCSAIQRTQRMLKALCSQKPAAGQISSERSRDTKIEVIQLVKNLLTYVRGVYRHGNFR
Assay: cell-based or functional assay

B1: PCaIL-13Rα2-Fc-B9563 (Fc fusion)
chain: MSMLSNAEIKVNPPQDFEIVDPGYLGYLSLQWQPPLFPDNFKECTIEYELKYRNIDSENWKTIITKNLHYKDGFDLNKGIEAKINTLLPAQCTNGSEVRSSWAETTYWTSPQGNRETKIQDMDCVYYNWQYLVCSWKPGMGVHFDTNYQLFYWYEGLDHSAECTDYIKVNGKNMGCRFPYLESSDYKDFYICVNGSSESQPIRPSYFIFQLQNIVKPMPPDYLSLTVKNSEEINLKWNMPKGPIPAKCFIYEIEFTEDGTTWVTTTVENEIQITRTSNESQKLCFLVRSKVNIYCSDDGIWSEWSDEQCWKGDIWKETGSNTKVDKPVAKECECKCNCNNCPCPGCGLLGGPSVFIFPPKPKDILVTARTPTVTCVVVDLDPENPEVQISWFVDSKQVQTANTQPREEQSNGTYRVVSVLPIGHQDWLSGKQFKCKVNNKALPSPIEEIISKTPGQAHQPNVYVLPPSRDEMSKNTVTLTCLVKDFFPPEIDVEWQSNGQQEPESKYRMTPPQLDEDGSYFLYSKLSVDKSRWQRGDTFICAVMHEALHNHYTQISLSHSPGK
With B1 the “Percent inhibition of IL-13 stimulated TF-1 cell proliferation; IL-13 at 10 ng/ml; fusion protein 6.6 ug/ml; refolding condition 1A” value was 30.9%, the “Percent inhibition of IL-13 stimulated TF-1 cell proliferation; IL-13 at 10 ng/ml; fusion protein 6.6 ug/ml; refolding condition 1B” value was 43.7% and the “Percent inhibition of IL-13 stimulated TF-1 cell proliferation; IL-13 at 10 ng/ml; fusion protein 6.6 ug/ml; refolding condition 1C” value was 100%. For the same binder, the “Percent inhibition of IL-13 stimulated TF-1 cell proliferation; IL-13 at 10 ng/ml; fusion protein 6.6 ug/ml; refolding condition 1D” value was 99.8%, the “Percent inhibition of IL-13 stimulated TF-1 cell proliferation; IL-13 at 10 ng/ml; fusion protein 6.6 ug/ml; refolding condition 2A” value was 35.1% and the “Percent inhibition of IL-13 stimulated TF-1 cell proliferation; IL-13 at 10 ng/ml; fusion protein 6.6 ug/ml; refolding condition 2B” value was 18%. The “Percent inhibition of IL-13 stimulated TF-1 cell proliferation; IL-13 at 10 ng/ml; fusion protein 6.6 ug/ml; refolding condition 2C” value was 16%, the “Percent inhibition of IL-13 stimulated TF-1 cell proliferation; IL-13 at 10 ng/ml; fusion protein 6.6 ug/ml; refolding condition 2D” value was 7.5% and the “Percent inhibition of IL-13 stimulated TF-1 cell proliferation; IL-13 at 10 ng/ml; fusion protein 6.6 ug/ml; refolding condition 3A” value was 81.3%. The “Percent inhibition of IL-13 stimulated TF-1 cell proliferation; IL-13 at 10 ng/ml; fusion protein 6.6 ug/ml; refolding condition 3B” value was 96.3%, the “Percent inhibition of IL-13 stimulated TF-1 cell proliferation; IL-13 at 10 ng/ml; fusion protein 6.6 ug/ml; refolding condition 3C” value was 98.9% and the “Percent inhibition of IL-13 stimulated TF-1 cell proliferation; IL-13 at 10 ng/ml; fusion protein 6.6 ug/ml; refolding condition 3D” value was 49.9%. The “Percent inhibition of IL-13 stimulated TF-1 cell proliferation; IL-13 at 50 ng/ml; fusion protein 6.6 ug/ml; refolding condition 1A” value was 29.4%, the “Percent inhibition of IL-13 stimulated TF-1 cell proliferation; IL-13 at 50 ng/ml; fusion protein 6.6 ug/ml; refolding condition 1B” value was 34.6% and the “Percent inhibition of IL-13 stimulated TF-1 cell proliferation; IL-13 at 50 ng/ml; fusion protein 6.6 ug/ml; refolding condition 1C” value was 92.3%. The “Percent inhibition of IL-13 stimulated TF-1 cell proliferation; IL-13 at 50 ng/ml; fusion protein 6.6 ug/ml; refolding condition 1D” value was 31.7%, the “Percent inhibition of IL-13 stimulated TF-1 cell proliferation; IL-13 at 50 ng/ml; fusion protein 6.6 ug/ml; refolding condition 2A” value was 19.7% and the “Percent inhibition of IL-13 stimulated TF-1 cell proliferation; IL-13 at 50 ng/ml; fusion protein 6.6 ug/ml; refolding condition 2B” value was 24%. The “Percent inhibition of IL-13 stimulated TF-1 cell proliferation; IL-13 at 50 ng/ml; fusion protein 6.6 ug/ml; refolding condition 2C” value was 11.9%, the “Percent inhibition of IL-13 stimulated TF-1 cell proliferation; IL-13 at 50 ng/ml; fusion protein 6.6 ug/ml; refolding condition 2D” value was 28.8% and the “Percent inhibition of IL-13 stimulated TF-1 cell proliferation; IL-13 at 50 ng/ml; fusion protein 6.6 ug/ml; refolding condition 3A” value was 44.7%. For the same binder, the “Percent inhibition of IL-13 stimulated TF-1 cell proliferation; IL-13 at 50 ng/ml; fusion protein 6.6 ug/ml; refolding condition 3B” value was 92.5%, the “Percent inhibition of IL-13 stimulated TF-1 cell proliferation; IL-13 at 50 ng/ml; fusion protein 6.6 ug/ml; refolding condition 3C” value was 95.4% and the “Percent inhibition of IL-13 stimulated TF-1 cell proliferation; IL-13 at 50 ng/ml; fusion protein 6.6 ug/ml; refolding condition 3D” value was 32.7%.
